# Data taken from publication PMC8559680, “Dynamics in Fip1 regulate eukaryotic mRNA 3′ end processing” (Genes & Development, 2021).
# B1: Fip1_(226) (Fip1 residues 1–226), purified from E. coli (domain or fragment, yeast, UniProt P45976 1-226, looked up)
# chain: MSSSEDEDDKFLYGSDSELALPSSKRSRDDEADAGASSNPDIVKRQKFDSPVEETPATARDDRSDEDIYSDSSDDDSDSDLEVIISLGPDPTRLDAKLLDSYSTAATSSSKDVISVATDVSNTITKTSDERLITEGEANQGVTATTVKATESDGNVPKAMTGSIDLDKEGIFDSVGITTIDPEVLKEKPWRQPGANLSDYFNYGFNEFTWMEYLHRQEKLQQDYNP
# notes: Isotopically labelled (15N, 13C, 2H) where it is the observed species in NMR; cloned in pET28a+; also called Fip226; source: E. coli BL21 Star, purified (Ni-NTA, TEV cleavage, Superdex 75); not shown: His tag, N-terminal, cleaved
# B2: Yth1_(ZF45C) (Yth1 residues 118–208) (domain or fragment, yeast, UniProt Q06102 118-208, looked up)
# chain: ASKIPKCENYEMGFCPLGSSCPRRHIKKVFCQRYMTGFCPLGKDECDMEHPQFIIPDEGSKLRIKRDDEINTRKMDEEKERRLNAIINGEV
# notes: Yth1, yeast, zinc fingers 4 and 5 and the rest of the C-terminal region, residues 118–208; 15N- or 13C,15N-labelled where it is the observed species in NMR; cloned in pGEX6P-2; also called entire C-terminal half of Yth1; source: E. coli BL21 Star, purified (GST resin, 3C cleavage, Superdex 75); not shown: GST, N-terminal, cleaved
# How the values were obtained:
# [1] = target: T1, CPFΔFip1 (recombinant CPF lacking Fip1; Pap1 also absent) (yeast, UniProt Q06632 1-1357; P42841 1-465; Q06102 1-208; Q12102 1-859; Q06224 1-779; P35728 …); experiment: mass photometry; Refeyn One iSCAT; samples diluted to 100 nM in 50 mM HEPES (pH 7.4), 150 mM NaCl; details: both partners purified
# T1 construct: Cft1, yeast; as m20; Pfs2, yeast, untagged; as m19; Yth1, yeast, untagged; as m12; Cft2, yeast; as m21; Ysh1, yeast; as m22; Mpe1, yeast; as m23; Pta1, yeast; as m24; Ssu72, yeast; as m25; Pti1, yeast; as m26; Glc7, yeast; as m27; as m28; Swd2, yeast; as m29; Twelve subunits: Fip1 was omitted from the CPFcore construct and Pap1, though co-expressed, was absent from the purified complex; source: …
# [2] = target: Yth1ZF4 (Yth1 zinc finger 4) (yeast) (UniProt Q06102); experiment: ITC; MicroCal iTC200, 25°C, 50 mM HEPES (pH 7.4), 150 mM NaCl; single class-binding site model
# [3] = target: B1; experiment: NMR titration; 15N-labelled Yth1 construct with unlabelled Fip1_(226), equimolar, 75 µM; chemical shift perturbations and line broadening; 700 MHz, 298 K, 50 mM HEPES (pH 7.4), 150 mM NaCl; details: both partners purified
Binder,binding result [1],Kd [2],binding result [3]
B1,binds,0.24 µM,–
B2,–,–,binds
